Results taken from IntAct's records for PubMed 30496485.

B1: Coiled-coil-helix-coiled-coil-helix domain-containing protein 2 (Homo sapiens), Q9Y6H1 (parent)
chain: MPRGSRSRTSRMAPPASRAPQMRAAPRPAPVAQPPAAAPPSAVGSSAAAPRQPGLMAQMATTAAGVAVGSAVGHTLGHAITGGFSGGSNAEPARPDITYQEPQGTQPAQQQQPCLYEIKQFLECAQNQGDIKLCEGFNEVLKQCRLANGLA
partner: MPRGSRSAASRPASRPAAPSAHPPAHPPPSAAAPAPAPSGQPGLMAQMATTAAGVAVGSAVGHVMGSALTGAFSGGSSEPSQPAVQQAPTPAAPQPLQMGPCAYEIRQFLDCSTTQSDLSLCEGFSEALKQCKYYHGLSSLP

Variants of: B1
Conditions: with chc10_human CHCHD10, Q8WYQ3

| effect of a mutation on the interaction | Variant |
| --- | --- |
| disrupting interaction strength | R145Q |
| disrupting interaction strength | T61I |
